Data from patent US20080292639A1.

Molecular target: native amyloid plaques in unfixed brain sections of Tg2576 APP transgenic mice (human) (UniProt P05067)
Test: cell-based or functional assay

native amyloid plaques in unfixed brain sections of Tg2576 APP transgenic mice (human), sequence (P05067 672-713 limits assumed): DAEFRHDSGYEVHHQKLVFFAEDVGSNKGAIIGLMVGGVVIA

Work on “mAb 4G8 (commercially available anti-Aβ antibody)” yielded an EC50 of antibody induced phagocytosis of amyloid of 0.8 µg/mL.

With mAb 6E10 (antibody) the EC50 of antibody induced phagocytosis of amyloid was 5 µg/mL.
